Results reported in US20120258119A1 (LUDWIG INSTITUTE FOR CANCER RESEARCH, published 2012).

Columns and labels:
[1] = molecular target: T1, human Fibroblast Activation Protein (FAP) expressed on cells (human, UniProt Q12884 1-760); assay: flow cytometry, serial dilutions on human FAP expressing cells (apparent KD)
T1 construct: whole, on cells; also called huFAP; human FAP
T1 sequence (looked up): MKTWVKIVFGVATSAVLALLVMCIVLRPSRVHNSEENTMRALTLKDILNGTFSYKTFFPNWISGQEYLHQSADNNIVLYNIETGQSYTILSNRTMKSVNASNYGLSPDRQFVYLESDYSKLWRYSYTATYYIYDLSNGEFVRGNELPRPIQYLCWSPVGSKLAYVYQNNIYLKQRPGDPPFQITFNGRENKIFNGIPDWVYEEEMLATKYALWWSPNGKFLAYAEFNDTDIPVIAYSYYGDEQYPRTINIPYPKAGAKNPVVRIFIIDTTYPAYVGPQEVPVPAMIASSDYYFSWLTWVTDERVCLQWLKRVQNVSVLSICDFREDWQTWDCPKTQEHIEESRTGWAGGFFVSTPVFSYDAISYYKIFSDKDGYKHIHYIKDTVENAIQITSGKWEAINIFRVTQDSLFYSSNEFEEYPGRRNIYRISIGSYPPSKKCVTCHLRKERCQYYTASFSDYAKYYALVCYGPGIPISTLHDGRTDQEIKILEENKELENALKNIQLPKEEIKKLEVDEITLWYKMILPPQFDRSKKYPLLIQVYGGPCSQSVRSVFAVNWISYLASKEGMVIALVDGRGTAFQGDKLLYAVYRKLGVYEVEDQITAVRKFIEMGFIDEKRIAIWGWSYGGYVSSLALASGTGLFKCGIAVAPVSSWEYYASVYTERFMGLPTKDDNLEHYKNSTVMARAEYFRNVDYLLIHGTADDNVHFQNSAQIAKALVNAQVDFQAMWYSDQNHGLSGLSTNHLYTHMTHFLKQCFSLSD

[2] = molecular target: T2, human DPPIV/CD26 expressed on HEK293 cells (human, UniProt P27487 1-766); assay: ELISA, Fab at 100 nM on plates coated with cell lysate
T2 construct: whole, on cells; also called huCD26; dipeptidyl peptidase IV
T2 sequence (P27487 whole entry): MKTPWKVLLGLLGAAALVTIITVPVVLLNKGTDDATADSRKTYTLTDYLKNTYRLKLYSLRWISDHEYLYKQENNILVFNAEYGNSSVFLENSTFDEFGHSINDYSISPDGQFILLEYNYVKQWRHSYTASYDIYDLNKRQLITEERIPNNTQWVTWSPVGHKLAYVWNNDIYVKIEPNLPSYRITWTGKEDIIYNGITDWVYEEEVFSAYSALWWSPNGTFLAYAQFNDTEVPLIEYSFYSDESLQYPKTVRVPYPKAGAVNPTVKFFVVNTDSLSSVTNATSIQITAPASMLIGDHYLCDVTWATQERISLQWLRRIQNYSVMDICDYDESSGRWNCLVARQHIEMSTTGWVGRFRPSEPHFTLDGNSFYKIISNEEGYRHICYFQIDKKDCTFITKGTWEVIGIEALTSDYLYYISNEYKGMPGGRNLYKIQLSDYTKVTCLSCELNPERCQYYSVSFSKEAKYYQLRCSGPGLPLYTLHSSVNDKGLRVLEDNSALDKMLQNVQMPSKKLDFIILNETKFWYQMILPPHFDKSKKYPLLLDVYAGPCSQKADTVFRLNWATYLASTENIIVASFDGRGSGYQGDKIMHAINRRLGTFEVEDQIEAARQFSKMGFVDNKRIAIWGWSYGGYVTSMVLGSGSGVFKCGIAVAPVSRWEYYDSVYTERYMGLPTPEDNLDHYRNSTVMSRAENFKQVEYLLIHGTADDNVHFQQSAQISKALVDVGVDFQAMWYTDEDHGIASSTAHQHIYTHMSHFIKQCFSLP

[3] = molecular target: T3, murine FAP expressed on HEK293 cells (mouse, UniProt P97321 1-761); assay: flow cytometry, serial dilutions on 293 muFAP+ cells (apparent KD)
T3 construct: whole, on cells; Also used as cell lysate in ELISA; also called muFAP; mouse FAP
T3 sequence (looked up): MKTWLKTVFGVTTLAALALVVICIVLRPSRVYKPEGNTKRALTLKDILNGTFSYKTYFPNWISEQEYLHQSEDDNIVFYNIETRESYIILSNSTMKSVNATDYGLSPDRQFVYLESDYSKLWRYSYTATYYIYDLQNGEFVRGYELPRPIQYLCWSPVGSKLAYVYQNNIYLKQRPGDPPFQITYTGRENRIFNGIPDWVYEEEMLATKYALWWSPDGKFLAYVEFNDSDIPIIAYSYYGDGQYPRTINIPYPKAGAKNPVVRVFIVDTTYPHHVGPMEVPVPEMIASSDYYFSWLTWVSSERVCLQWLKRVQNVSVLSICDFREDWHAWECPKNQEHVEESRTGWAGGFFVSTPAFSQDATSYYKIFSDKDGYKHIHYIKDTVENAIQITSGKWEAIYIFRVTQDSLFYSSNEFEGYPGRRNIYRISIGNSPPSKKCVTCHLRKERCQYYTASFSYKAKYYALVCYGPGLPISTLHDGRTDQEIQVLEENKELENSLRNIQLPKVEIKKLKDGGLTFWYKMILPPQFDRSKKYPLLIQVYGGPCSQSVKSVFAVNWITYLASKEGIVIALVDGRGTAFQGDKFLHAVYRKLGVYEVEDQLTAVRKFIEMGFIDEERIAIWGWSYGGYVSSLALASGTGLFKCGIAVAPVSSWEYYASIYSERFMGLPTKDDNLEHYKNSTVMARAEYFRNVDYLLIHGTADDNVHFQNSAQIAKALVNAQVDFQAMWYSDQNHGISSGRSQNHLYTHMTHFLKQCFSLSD
Experimental: The cells were then washed once with PBS, fixed for 20 min with 2% PFA on ice and bound antibody was detected with PE-conjugated anti-human IgG F(ab)′₂ (Jackson Immuno Research 109-116-097). Cells were analyzed on a FACScan (BD) cytometer and data was analysed with FlowJo. The apparent Kapp was calculated by fitting a dose-response curve using the following equitation f=Bmax*abs(x)/(Kd+abs(x))+Ns*x using SigmaPlot software (Systat Software Inc.).

[4] = molecular target: T4, recombinant human FAP (R&D systems) (human, UniProt Q12884 26-760); assay: SPR (BIAcore T100), Fab injected over rhuFAP on a low-density CM5 chip
T4 construct: Bought protein amine-coupled at low density on a CM5 chip for SPR; also called rhuFAP; rFAP
T4 sequence (looked up): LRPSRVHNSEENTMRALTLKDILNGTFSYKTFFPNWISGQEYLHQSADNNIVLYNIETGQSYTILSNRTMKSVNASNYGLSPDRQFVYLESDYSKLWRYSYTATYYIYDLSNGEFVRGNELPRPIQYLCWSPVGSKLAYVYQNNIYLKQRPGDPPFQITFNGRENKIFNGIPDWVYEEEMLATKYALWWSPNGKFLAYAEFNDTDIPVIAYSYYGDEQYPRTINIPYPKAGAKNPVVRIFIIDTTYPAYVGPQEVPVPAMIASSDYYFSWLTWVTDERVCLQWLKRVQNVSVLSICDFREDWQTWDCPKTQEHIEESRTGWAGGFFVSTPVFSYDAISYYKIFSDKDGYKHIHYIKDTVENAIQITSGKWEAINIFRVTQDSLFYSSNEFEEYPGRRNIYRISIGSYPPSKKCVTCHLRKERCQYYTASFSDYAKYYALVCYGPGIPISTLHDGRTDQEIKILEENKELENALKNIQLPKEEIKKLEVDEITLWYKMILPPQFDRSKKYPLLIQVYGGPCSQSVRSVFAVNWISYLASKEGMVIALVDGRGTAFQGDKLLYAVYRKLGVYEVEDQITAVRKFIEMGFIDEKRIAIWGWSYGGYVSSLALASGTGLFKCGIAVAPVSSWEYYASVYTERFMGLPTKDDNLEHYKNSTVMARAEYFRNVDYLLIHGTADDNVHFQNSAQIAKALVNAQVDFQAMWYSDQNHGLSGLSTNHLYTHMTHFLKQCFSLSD
Experimental: (§1) Binding analysis of Fabs to recombinant FAP (R&D systems) was performed on a BIAcore T100 instrument. rFAP was immobilized at low density on a CM5 sensor chip using amine coupling chemistry. […] Analysis of the binding curves and determination of rate constants was done using the nonlinear data analysis program BIAevaluation.

[5] = molecular target: T4, recombinant human FAP (R&D systems); assay: SPR (BIAcore), Fab 0.5-16 nM injected over rhuFAP on a CM5 chip, heterogeneous ligand model [box under the left panel]
Experimental: (§2) Purified Fabs were injected at the concentrations indicated in the figure on a rhuFAP-coated CM5 sensor chip. Values were corrected for binding to the reference flow cell. The black solid lines represent the theoretical curves for each Fab concentration calculated according to the heterogeneous ligand model and the indicated rate and affinity constants.
as §1

[6] = molecular target: T4, recombinant human FAP (R&D systems); assay: SPR (BIAcore), Fab 6.25-200 nM injected over rhuFAP on a CM5 chip, heterogeneous ligand model [box under the right panel]
Experimental: as §2, §1

Row | Binder | Kd [1] | binding result [2] | Kd [3] | Kd [4] | koff [5] | kon [5] | koff [6] | kon [6]
1 | ESC11 IgG1 (antibody, V domains shown, Variable domains cloned into a full human IgG1 format (modified pEE12.4 vector) and produced in NS0 cells; also called ESC11 DyLight 488) VH: QVQLQESGPGLVKPSETLSLTCTVSGGSISSNNYYWGWIRQTPGKGLEWIGSIYYSGSTNYNPSLKSRVTISVDTSKNQFSLKLSSVTAADTAVYYCARGARWQARPATRIDGVAFDIWGQGTMVTVSS VL: ETTLTQSPGTLSLSPGERATLSCRASQTVTRNYLAWYQQKPGQAPRLLMYGASNRAAGVPDRFSGSGSGTDFTLTISRLEPEDFAVYYCQQFGSPYTFGQGTKVEIK | 1.1 nM |  |  |  |  |  |  | 
2 | ESC11 Fab fragment (Fab, V domains shown, Fully human Fab from a non-immunized phage library, made in E. coli TG-1, His-tag purified and detected by its myc tag; also called Fab ESC11) VH: HVQLQESGPGLVKPSETLSLTCTVSGGSISSNNYYWGWIRQTPGKGLEWIGSIYYSGSTNYNPSLKSRVTISVDTSKNQFSLKLSSVTAADTAVYYCARGARWQARPATRIDGVAFDIWGQGTMVTVSS VL: ETTLTQSPGTLSLSPGERATLSCRASQTVTRNYLAWYQQKPGQAPRLLMYGASNRAAGVPDRFSGSGSGTDFTLTISRLEPEDFAVYYCQQFGSPYTFGQGTKVEIK |  | no binding (tested: 100 nM) | 51 nM | 10 nM | 0.017 s⁻¹ | 1.6e+06 M⁻¹ s⁻¹ |  | 
3 | ESC14 Fab fragment (Fab, V domains shown, Fully human Fab from a non-immunized phage library, made in E. coli TG-1, His-tag purified and detected by its myc tag; also called Fab ESC14) VH: EVQLVQSGAEVKKPGASVKVSCKASGYTFTSYGISWVRQAPGQGLEWMGWISAYNGNTNYAQKLQGRVTMTTDTSTSTAYMELRSLRSDDTAVYYCARDWSRSGYYLPDYWGQGTLVTVSS VL: DVVMTQSPLSLPVTLGQPASISCRSSQSLLHSNGYNYLDWYLQRPGQSPHLLIFLGSNRASGVPDRFSGSGSGTDFTLKISRVEAEDVGIYYCMQALQTPPTFGQGTKVEIK |  | no binding (tested: 100 nM) | 251 nM | 210 nM |  |  | 0.125 s⁻¹ | 560000 M⁻¹ s⁻¹
4 | ESC14 IgG1 (antibody, V domains shown, Variable domains cloned into a full human IgG1 format and produced in NS0 cells) VH: EVQLVQSGAEVKKPGASVKVSCKASGYTFTSYGISWVRQAPGQGLEWMGWISAYNGNTNYAQKLQGRVTMTTDTSTSTAYMELRSLRSDDTAVYYCARDWSRSGYYLPDYWGQGTLVTVSS VL: DVVMTQSPLSLPVTLGQPASISCRSSQSLLHSNGYNYLDWYLQRPGQSPHLLIFLGSNRASGVPDRFSGSGSGTDFTLKISRVEAEDVGIYYCMQALQTPPTFGQGTKVEIK | 1.1 nM |  |  |  |  |  |  | 
